Test [1] addresses T1, recombinant human transferrin receptor 1 (rhTfR-1) (human, UniProt P02786 89-760).
T1 construct: extracellular domain; also called human TfR-1; human TfR1
As to the kind of experiment: ELISA on plate-coated hTfR1 (Example 15, as in Example 1D) [panel hTfR1]. How it is done:
(§1) The binding specificity of H01-Fc and F02-Fc for hTfR-1 and hTfR-2 were determined by an ELISA as described in Example 1D. Anti-TfR-2 was used as a positive control for TfR-2 binding. […] Both H01-Fc […] F02 Fc bound hTfR-1 with high specificity (˜100 nM) and neither bound hTfR-2 (FIG. 18).
(An ELISA detects its analyte on a solid surface through an enzyme-linked reagent.)

Test [2] deals with T2, human transferrin receptor 2 (hTfR-2) (human, UniProt Q9UP52 105-801, limits assumed).
T2 construct: also called human TfR-2
T2 sequence (looked up): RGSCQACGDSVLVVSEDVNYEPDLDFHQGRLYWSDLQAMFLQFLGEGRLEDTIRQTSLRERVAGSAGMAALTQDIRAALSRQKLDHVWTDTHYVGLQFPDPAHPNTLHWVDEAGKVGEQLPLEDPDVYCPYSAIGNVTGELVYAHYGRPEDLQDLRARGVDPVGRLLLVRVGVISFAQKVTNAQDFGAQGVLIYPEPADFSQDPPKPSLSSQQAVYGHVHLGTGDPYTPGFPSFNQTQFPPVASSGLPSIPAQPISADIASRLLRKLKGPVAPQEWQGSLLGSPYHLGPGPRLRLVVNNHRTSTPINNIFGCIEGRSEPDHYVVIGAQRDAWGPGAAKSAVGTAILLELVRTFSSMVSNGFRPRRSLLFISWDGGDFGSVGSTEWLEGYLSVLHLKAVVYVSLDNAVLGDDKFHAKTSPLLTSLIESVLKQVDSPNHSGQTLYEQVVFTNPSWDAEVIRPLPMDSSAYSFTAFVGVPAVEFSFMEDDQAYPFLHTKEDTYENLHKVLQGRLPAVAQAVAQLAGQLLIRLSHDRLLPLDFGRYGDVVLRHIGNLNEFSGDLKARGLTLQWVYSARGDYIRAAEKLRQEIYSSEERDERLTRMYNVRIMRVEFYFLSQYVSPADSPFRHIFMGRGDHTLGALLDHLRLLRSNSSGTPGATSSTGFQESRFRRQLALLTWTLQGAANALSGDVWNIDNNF
As to the kind of experiment: ELISA on plate-coated hTfR2 (Example 15, as in Example 1D) [panel hTfR2]. On the procedure: as §1

The target of test [3] is T3, recombinant mouse transferrin receptor 1 (rmTfR-1) (mouse, UniProt Q62351 89-763).
T3 construct: extracellular domain; also called mouse TfR-1
The experiment in a line: competitive phage ELISA.

Test [4] concerns the target T1, recombinant human transferrin receptor …. As to the kind of experiment: competitive phage ELISA.
Test [5] concerns the target T3, recombinant mouse transferrin receptor …. The experiment in a line: ELISA, monomer bound at pH 7 to rmTfR-1, washed 3 x 3 min at pH 7.2 or pH 5.2, HRP anti-FLAG [panel VNAR C11 on mTfR-1]. How it is done: (§2) VNARs were purified from 500 mL bacterial cultures which were grown in auto-induction medium (Novagen) and periplasmic fractions were extracted by osmotic shock by resuspending bacteria in TES buffer (50 mM Tris, 1 mM EDTA, 20% Sucrose) mixed with an equal volume of TES diluted 1:5 in water. After 30 minutes on ice, lysates were clarified by centrifugation and the salt concentrations were adjusted to 500 mM NaCl and 10 mM imidazole in 1×PBS. Periplasmic extracts were then purified with Nickel-Sepharose resin (Qiagen), washed in 1×PBS, 10 mM imidazole, 500 mM NaCl, and then eluted in 1×PBS, 500 mM imidazole, 500 mM NaCl. The purified protein was then buffer-exchanged against PBS and concentrated by centrifugation with Vivaspin 20 filters (Sartorius, MWCO 5000). Endotoxin was removed using VivaPure Q mini column (Sartorius) and the protein was sterile filtered (0.22 μm). After estimating the protein concentration using Bradford reagent (Pierce), the purified protein was stored in frozen aliquots. EC50 binding curves of purified VNAR monomers to immobilized to human or mouse TfR-1 ([…]) were determined by standard protein ELISA an HRP-conjugate anti-FLAG M2 antibody. For pH binding sensitivity testing, purified monomer was bound at pH7 and then washed 3 times for 3 min at either pH5.2 or pH7.2.

Test [6] has as its target T1, recombinant human transferrin receptor …. As to the kind of experiment: ELISA, monomer bound at pH 7 to rhTfR-1, washed 3 x 3 min at pH 7.2 or pH 5.2, HRP anti-FLAG [panel VNAR C11 on hTfR-1]. On the procedure: as §2
For test [7], the target named is T3, recombinant mouse transferrin receptor …. The experiment in a line: ELISA, monomer bound at pH 7 to rmTfR-1, washed 3 x 3 min at pH 7.2 or pH 5.2, HRP anti-FLAG [panel VNAR G02 on mTfR-1]. On the procedure:
as §2

The target in test [8] is T1, recombinant human transferrin receptor …. As to the kind of experiment: ELISA, monomer bound at pH 7 to rhTfR-1, washed 3 x 3 min at pH 7.2 or pH 5.2, HRP anti-FLAG [panel VNAR G02 on hTfR-1]. On the procedure: as §2
The target of test [9] is T3, recombinant mouse transferrin receptor …. As to the kind of experiment: ELISA, purified VNAR monomer on plate-adsorbed rmTfR-1, HRP anti-FLAG [panel MOUSE TfR BINDING]. On the procedure: as §2
For test [10], the target named is T1, recombinant human transferrin receptor …. As to the kind of experiment: ELISA, purified VNAR monomer on plate-adsorbed rhTfR-1, HRP anti-FLAG [panel HUMAN TfR BINDING]. How it is done: as §2
The target of test [11] is T3, recombinant mouse transferrin receptor …. As to the kind of experiment: ELISA, monomer bound at pH 7 to rmTfR-1, washed 3 x 3 min at pH 7.2 or pH 5.2, HRP anti-FLAG [panel VNAR H11 on mTfR-1]. How it is done: as §2
The target is the same in test [12]. As to the kind of experiment: EC50 on recombinant target, presumably ELISA as in Example 8B. On the procedure: (§3) To test whether the bispecific molecules retained binding to both transferrin receptor and BACE1, the purified proteins were titrated against either hTfR, mTfR, or BACE1 adsorbed to the solid phase of an ELISA plate. Binding was measured with an […] anti-human-Fc antibody (Example 8; Table 3).
(§4) To test whether the bispecific molecules retained binding to both transferrin receptor and BACE1, the purified proteins were titrated against hTfR, mTfR, or BACE1 adsorbed to the solid phase of an ELISA plate. Binding was measured with an HRP-labelled anti-human-Fc antibody.

For test [13] the target is unchanged. As to the kind of experiment: ELISA; target adsorbed to plate; HRP anti-human-Fc detection. How it is done: as §3, §4

T3 sequence (Q62351 89-763): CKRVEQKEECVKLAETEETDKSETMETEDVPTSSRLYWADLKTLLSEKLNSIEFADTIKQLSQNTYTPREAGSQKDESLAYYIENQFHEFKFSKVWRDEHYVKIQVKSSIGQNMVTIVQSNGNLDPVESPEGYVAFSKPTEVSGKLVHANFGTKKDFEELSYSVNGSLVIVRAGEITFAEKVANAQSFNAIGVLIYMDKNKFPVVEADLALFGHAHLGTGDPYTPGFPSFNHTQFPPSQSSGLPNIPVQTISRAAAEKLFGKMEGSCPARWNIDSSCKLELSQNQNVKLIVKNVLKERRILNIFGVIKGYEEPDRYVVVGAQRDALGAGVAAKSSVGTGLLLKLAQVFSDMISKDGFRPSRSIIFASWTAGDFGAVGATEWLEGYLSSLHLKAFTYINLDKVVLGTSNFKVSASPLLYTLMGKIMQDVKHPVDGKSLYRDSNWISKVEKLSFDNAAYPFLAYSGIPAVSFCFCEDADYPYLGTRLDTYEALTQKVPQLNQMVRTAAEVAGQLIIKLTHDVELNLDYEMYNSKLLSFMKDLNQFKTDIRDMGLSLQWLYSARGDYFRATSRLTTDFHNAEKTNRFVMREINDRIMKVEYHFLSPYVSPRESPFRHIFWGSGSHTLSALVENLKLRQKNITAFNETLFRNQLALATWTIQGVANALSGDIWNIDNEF
T1 sequence (P02786 89-760): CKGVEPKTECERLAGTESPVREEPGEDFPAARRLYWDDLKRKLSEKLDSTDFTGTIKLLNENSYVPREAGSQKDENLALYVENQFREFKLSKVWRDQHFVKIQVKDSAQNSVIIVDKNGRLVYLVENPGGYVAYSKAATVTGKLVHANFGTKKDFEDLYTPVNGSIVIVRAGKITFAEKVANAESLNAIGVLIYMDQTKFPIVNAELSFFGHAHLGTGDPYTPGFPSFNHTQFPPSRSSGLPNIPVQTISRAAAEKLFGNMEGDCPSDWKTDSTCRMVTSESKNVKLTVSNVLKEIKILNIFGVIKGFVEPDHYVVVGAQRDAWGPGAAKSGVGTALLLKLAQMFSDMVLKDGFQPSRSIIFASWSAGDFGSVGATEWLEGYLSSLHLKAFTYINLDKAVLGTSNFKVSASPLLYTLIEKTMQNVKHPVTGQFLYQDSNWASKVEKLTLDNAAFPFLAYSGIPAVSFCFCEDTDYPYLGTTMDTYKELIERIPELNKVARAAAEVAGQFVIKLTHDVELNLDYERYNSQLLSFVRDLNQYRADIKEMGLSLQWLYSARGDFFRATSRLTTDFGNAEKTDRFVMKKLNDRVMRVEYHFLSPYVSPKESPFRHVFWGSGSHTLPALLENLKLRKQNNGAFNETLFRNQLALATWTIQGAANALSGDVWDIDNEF

B1: H01-Fc (bivalent VNAR-Fc fusion protein) (Fc fusion)
chain: ARVDQTPQTITKETGESLTINCVLRDSNCALSSTYWYRKKSGSTKEESISKGGRYVETVNSGSKSFSLRINDLTVEDSGTYRCNVWHDLVWSVCTTDVYGGGTVVTVNAASGAGGGGS
notes: VNAR fused to the N-terminus of the Fc; bivalent; not shown: human IgG1-Fc region (CH2 and CH3 domains) from a modified pFUSE-hIgG1e3-Fc2 plasmid
One may read the EC50 (read off the curve) as the concentration needed to bring the measured effect to its halfway point. As to B1, the “EC50 (read off the curve)” value in test [1] is roughly 8 nM. In addition, the binding result in test [2] is reported as “no binding (tested: 10^-6 M)”.

B2: VNAR H01 (VNAR)
VNAR: ARVDQTPQTITKETGESLTINCVLRDSNCALSSTYWYRKKSGSTKEESISKGGRYVETVNSGSKSFSLRINDLTVEDSGTYRCNVWHDLVWSVCTTDVYGGGTVVTVNA
notes: Shark VNAR single domain; not shown: FLAG tag of the pOsD2 vector
B2: in test [3], the binding result is given as “binds”.

B3: VNAR C02 (VNAR)
VNAR: ARVDQTPQTITKETGESLTINCVLRDNDCALSSTYWYRKKSGSTNEESISKGGRYVETVNSGSKSFSLRINDLTVEDSGTYRCNVYQPPSTESLYWCDVYGGGTAVTVNA
notes: as for B2
On to B3, for which the binding result in test [3] and in test [4] was “binds” each time.

B4: VNAR C11 (VNAR)
VNAR: ARVDQTPQTITKETGESLTINCVLRDKDCALSSTSWYRKKSGSTNEESISKGGRYVETVNSGSKSFSLRINDLTVEDSGTYRCNVYARPRPDNLNWCDVYGGGTAVTVNA
notes: as for B2
For B4, the binding result in [5] and in test [6] was “binds” in each case.

B5: VNAR G02 (VNAR)
VNAR: ARVDQTPQTITKETGESLTINCVLRDRDCALSSTHWYRKKSGSTNEESISKGGRYVETVDSGSKSFSLRINDLTVEDSGTYRCNVYQSPVGRRWWCDVYGGGTVVTVNA
notes: as for B2
Turning to B5, the binding result in [7] and in [8] was “binds” each time.

B6: VNAR A03 (VNAR)
VNAR: ARVDQTPQTITKETGESLTINCVLRDRDCALSSTHWYRKKSGSTNEESIPKGGRYVETVNSGSKSFSLRINDLTVEDSGTYRCNVYSLTANWWCDVYGGGTVVTVNA
notes: as for B2
In the case of B6, the binding result in test [9] and in [10] was “binds” in each case.

B7: VNAR H11 (VNAR)
VNAR: ARVDQTPQTITKETGESLTINCVLRDNDCALSSTYWYRKKSGSTNEERMTKGGRYVETVNSGSKSFSLRINDLTVEDSGTYRCNVYGLVDCASGMNWIDVYGGGTVVTVNA
notes: as for B2
Regarding B7, the binding result in [11] and in test [10] was “binds” throughout.

B8: F02-hFc (bivalent F02 VNAR-hFc fusion protein) (Fc fusion)
chain: ARVDQTPQTITKETGESLTINCVLRDNDCTLSSTHWYRKKSGSTNEERISKGGRYVETVNSGSKSFSLRINDLTVEDSGTYRCNVYAMTRNWWCDVYGGGTVVTVNAASGAGGGGS
notes: VNAR fused to the N-terminus of the Fc; bivalent, about 75 kDa; also called F02-Fc; F02 Fc; not shown: human IgG1-Fc region (CH2 and CH3 domains) from a modified pFUSE-hIgG1e3-Fc2 plasmid
As a reminder, the EC50 is the concentration at which the effect is half-maximal. With B8, the half-maximal effective concentration (EC50) was determined as 34.2 nM in [12] and 34.3 nM in test [13]. Besides, the concentration giving a half-maximal response (EC50 (read off the curve)) in test [1] was roughly 20 nM. Also, in test [2], the binding result is on record as “no binding (tested: 10^-6 M)”.

B9: VNAR A07 (VNAR)
VNAR: ARVDQTPQTITKEEGESLTINCVLRDSSSALASTSWYRKKSGSTREETISKGGRYVETVNSGSKSFSLRINDLTVEDSGTYRCNVYELVEDTSAYEIGVDVYGDGTAVTVNA
notes: Shark VNAR single domain; also called clone A07; not shown: FLAG tag of the pOsD2 vector
B9: the binding result in test [3] and in [4] was “binds” throughout.

Source of the values: patent US20200316195A1 (OSSIANIX, published 2020).
